Experimental findings from patent publication US20150344580A1 (published 2015) are described below.

The target in assay [1] is T1, human chemokine receptor CCR7 (UniProt P32248 25-378).
T1 chain: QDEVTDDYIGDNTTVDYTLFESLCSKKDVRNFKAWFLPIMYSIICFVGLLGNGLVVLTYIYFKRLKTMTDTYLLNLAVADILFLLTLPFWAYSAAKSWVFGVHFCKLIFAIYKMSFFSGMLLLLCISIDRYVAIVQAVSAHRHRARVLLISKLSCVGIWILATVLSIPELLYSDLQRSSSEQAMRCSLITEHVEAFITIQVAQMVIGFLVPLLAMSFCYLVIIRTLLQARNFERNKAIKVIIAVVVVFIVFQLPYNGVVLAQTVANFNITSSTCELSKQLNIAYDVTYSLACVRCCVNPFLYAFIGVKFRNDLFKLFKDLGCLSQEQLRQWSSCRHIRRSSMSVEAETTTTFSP
As to the kind of experiment: FACS cell binding; after pH stress (2hr).

Assay [2] concerns the target T1, human chemokine receptor CCR7. Kind of assay: FACS cell binding; after pH stress (3hr).
Assay [3] has the same target. Kind of assay: FACS cell binding; after pH stress (2hr).
Assay [4] shares this target. As to the kind of experiment: FACS cell binding; after pH stress (3hr).
For assay [5] the target is unchanged. Kind of assay: FACS cell binding; after temperature stress.

B1: MSM R735 in IgG4 format (antibody, V domains shown)
VH: EVQLLESGGGLVQPGGSLRLSCAASGFTFSNYNMHWVRQAPGKGLEWVSGIGPRRGRTYYADSVKGRFTISRDNSKNTLYLQMNSLRAEDTAVYYCARSYAYQYRGLDYWGQGTLVTVSS
VL: EIVLTQSPGTLSLSPGERATLSCRASQSVSSSYLAWYQQKPGQAPRLLIYGASSRATGIPDRFSGSGSGTDFTLTISRLEPEDFAVYYCQQGSPVTFGQGTKVEIKR
The EC50 is the concentration needed to bring the measured effect to its halfway point. High values mean lower potency in that assay, low ones higher potency in that assay. Consider B1, for which the EC50 in assay [1] was roughly 4.6 nM; in assay [2], roughly 7.6 nM.

B2: MSM R707 in IgG4 format (antibody, V domains shown)
VH: EVQLLESGGGLVQPGGSLRLSCAASGFTFSNYAIHWVRQAPGKGLEWVSAITPRGGYTYYADSVKGRFTISRDNSKNTLYLQMNSLRAEDTAVYYCARGLTMMYTPGMDYWGQGTLVTVSS
VL: not shown
For the molecule B2, the values for the 50% effective concentration (EC50) in assay [3], in assay [4] and in assay [5] were roughly 9.4 nM, roughly 9.1 nM and roughly 6 nM, respectively.
